These results are taken from the supplement of paper PMC12042874.

± gives the uncertainty stated by the source.

This data set in a line: amyloid nucleation score (Sup35N fusion, yeast selection) (log enrichment); library NNK1; higher = more nucleation; inactive = no reads after selection. A digest of the protocol: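 The nucleation score is a DiMSum log enrichment of output over input reads, centred on the mode score of non-aggregating sequences. Sequences under 100 input reads were excluded, and reads came from Illumina sequencing of plasmid inserts. Psi-negative yeast expressing Sup35N fused to peptides of 20 random codons were induced with 100 μM copper sulfate for 24 hours and grown 7 days at 30°C on medium lacking adenine and uracil. Random libraries had three technical output replicates.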
Consider QKSVWKSITGRASFYSSLVR, for which the amyloid nucleation score entry was “inactive”.

QKSYMCRVGYPF displayed an amyloid nucleation score of 0.501 ± 0.72.

The substance QLESMIYCVVSFYAAGVNFE registered an amyloid nucleation score of -0.468 ± 1.9.

In turn, QLTGW gave an amyloid nucleation score of -0.036 ± 0.22.

With QLVYCCLLILIYTYEC, the amyloid nucleation score turned out to be 0.499 ± 0.42.

As to QMCLFKVNLVVTISI, the amyloid nucleation score entry was “inactive”.

In the case of QMKAVLRLRINICCPQVRGT, the amyloid nucleation score was 4.66 ± 0.1.

The substance QMVYRYDER yielded an amyloid nucleation score of -1.43 ± 1.6.

For the substance QNFWALGPIRRIYFVNVITN, the amyloid nucleation score amounted to 7.315 ± 0.06.

Regarding QNPRIKFIQHVPIYNEGTLP, the amyloid nucleation score was 1.17 ± 0.43.

In the case of QNWMPRHLTITLNDIRLYL, the amyloid nucleation score is 4.95 ± 0.12.

In the case of QPKFLVCFA, the amyloid nucleation score is 0.101 ± 0.6.

QRCTIYRSSI: the amyloid nucleation score entry was “inactive”.

QRERMRGFKFDRLFCIRVWW registered an amyloid nucleation score of -1.03 ± 0.44.

QRFLHVESYESCLVSVSNLS came in with an amyloid nucleation score of -0.752 ± 1.9.

Consider QRKPVCSGLTLFHMLNRVTK, for which the amyloid nucleation score was -0.484 ± 0.65.

With QRMCVYLGTLPLSLLGRMWG, the amyloid nucleation score is 0.175 ± 1.1.

Turning to QRRHMCCVNAFFRDMRKGIG, the amyloid nucleation score is 1.63 ± 0.43.

In turn, QRVVKVWWDTKPYVSMGSFL displayed an amyloid nucleation score of 0.563 ± 0.44.

Substance QSADLMNSMTLICGWSVQIA registered an amyloid nucleation score of 4.43 ± 0.12.

In the case of QSAYRSR, the amyloid nucleation score result is “inactive”.

On to QSFSLS, for which the amyloid nucleation score stood at 0.609 ± 0.33.

Substance QSGAVTSSVRPQRVEVVRVV showed an amyloid nucleation score of -0.904 ± 0.88.

Substance QSGGVRVTNWRGNVTAT came in with an amyloid nucleation score of 0.043 ± 0.39.

As for QSTNLAFLRICECSE, the amyloid nucleation score stood at 3.8 ± 0.071.

On to QSTVTCRFMCVVWGSNW, for which the amyloid nucleation score is -0.078 ± 0.47.

On to QSVGMWSY, for which the amyloid nucleation score was -0.256 ± 0.88.

In turn, QSVKTQGVVCAVSIYFGGCS had an amyloid nucleation score of 2.39 ± 0.23.

Substance QTFTYKCFIHYFMRMWLVQI displayed an amyloid nucleation score of -0.005 ± 0.75.

Substance QTGAAFMVAASRGKKTGVLR displayed an amyloid nucleation score of 0.327 ± 0.28.

Substance QTGKRYGTFLGYDGLEGRPD showed an amyloid nucleation score of -0.502 ± 0.55.

In the case of QTKRSCCSFFVNL, the amyloid nucleation score is 6.603 ± 0.05.

Regarding QTSDTNWGVLFTVYFLCQDM, the amyloid nucleation score is -0.059 ± 0.67.

On to QTVGGRFSSFY, for which the amyloid nucleation score entry was “inactive”.

QVCRARMHMEVGAMGTFHAS registered an amyloid nucleation score of 0.521 ± 0.41.

In the case of QVYYVCGYTSDKLLKNSYNN, the amyloid nucleation score was -0.125 ± 0.45.

With QWCVKESAFIYEYRLSGDCL, the amyloid nucleation score was -0.584 ± 0.74.

For the substance QWGNLFLWKTIAESLLRD, the amyloid nucleation score was 1.47 ± 0.67.

As to QWLYYVKEPIAYSLL, the amyloid nucleation score was found to be 0.46 ± 0.24.

As to QYHYNGGLPRQFK, the amyloid nucleation score is -0.534 ± 0.54.

With QYMREEAGVALNGETHFFSL, the amyloid nucleation score came to 0.567 ± 0.39.

Substance QYPLMK gave an amyloid nucleation score of 0.319 ± 0.32.

As to QYPRFHVTGTGRLCGSRMSY, the amyloid nucleation score was -0.382 ± 0.4.

Turning to QYRHTQSYRLELKVHGDFKR, the amyloid nucleation score was -0.171 ± 1.1.

With QYVIQAYACTWCRCGKLQSG, the amyloid nucleation score is 7.693 ± 0.065.

In the case of RAAALRRKRDD, the amyloid nucleation score was 0.203 ± 0.42.

RACDNMYHYRCLLRSTEHHQ yielded an amyloid nucleation score of -0.185 ± 0.22.

Substance RACVNSHQRMGGDGSLSMVL registered an amyloid nucleation score of 2.48 ± 0.15.

As to RADIKAIMLNYMIFA, the amyloid nucleation score result is “inactive”.

In turn, RAFAFTW had an amyloid nucleation score of 2.38 ± 0.14.

Substance RAGIFKEYCSFATVKYVKDN displayed an amyloid nucleation score of -1.04 ± 0.39.

Turning to RAMVLCGGCTWPAREDNEKV, the amyloid nucleation score was found to be 0.506 ± 0.33.

In turn, RANQHRGYIFSILVTFCYST returned an amyloid nucleation score of -0.505 ± 0.51.

Substance RAWASVLGSFGIGVSCCGA showed an amyloid nucleation score of -0.85 ± 1.2.

Substance RCCKQTSRVDMC gave an amyloid nucleation score of 0.156 ± 1.6.

As to RCINRGNLAHGGGWCKCKAR, the amyloid nucleation score was determined as 0.743 ± 0.54.

The substance RCKGNGKNISCSPFQSREWY gave an amyloid nucleation score of 0.026 ± 0.33.

With RCMFAYLRVMDCNGGNVYPV, the amyloid nucleation score amounted to 0.409 ± 0.21.

In turn, RCMMQYKFTWGIVTYRKDLG registered an amyloid nucleation score of 0.658 ± 0.34.

For the substance RCRIWEEIGPIGKGERSRGC, the amyloid nucleation score came out at 0.405 ± 0.45.

RCSLIPGRLPRNRFVRPDYC returned an amyloid nucleation score of -1.53 ± 1.3.

In the case of RDHCARYHARDGTEPYSGHR, the amyloid nucleation score entry is “inactive”.

In turn, RDIWMATYRWVRVYSLMWIG had an amyloid nucleation score of 1.01 ± 0.48.

Consider RDMMMRRWVVSKSEL, for which the amyloid nucleation score was determined as 0.711 ± 0.72.

Substance RDPYMCSLVRAGSGSKGTI gave an amyloid nucleation score of 0.447 ± 0.56.

Substance RDSINLLDFGIVITGAKKWS registered an amyloid nucleation score of 0.218 ± 0.27.

On to RDSQMMNT, for which the amyloid nucleation score was 0.312 ± 0.37.

Substance RDTVTSNSSVT had an amyloid nucleation score of 4.36 ± 0.095.

With RDVECQLVSMHKGMWKLVEE, the amyloid nucleation score was -0.041 ± 0.28.

The substance REANNPCRVNTKSIVVRLEV gave an amyloid nucleation score of -0.787 ± 0.32.

In the case of REITCR, the amyloid nucleation score is -0.24 ± 0.26.

In turn, RERESQMYFNLFSENTY registered an amyloid nucleation score of -0.435 ± 0.51.

Take RERSIWFSFDGCRRRRRYGG: the amyloid nucleation score turned out to be 1.41 ± 0.78.

Take RERSYRSGDYRCYSIMWSAL: the amyloid nucleation score was -0.382 ± 0.23.

Turning to RESSAAVDTCTILKMTEKVG, the amyloid nucleation score is -0.131 ± 0.66.

RFFNHPMSFANMKLRSECTR registered an amyloid nucleation score of -0.832 ± 0.94.

Substance RFFPDNNCMQCDATAEDTGL returned an amyloid nucleation score of -0.246 ± 1.4.

The substance RFIGVQQMVCVTYNWFKVLG gave an amyloid nucleation score of 1.16 ± 0.19.

Consider RFLSMWSHCQLMF, for which the amyloid nucleation score entry is “inactive”.

RFMCWVFTGCLGLSGNSSC: the amyloid nucleation score was 1.95 ± 0.16.

For RFNISIPD, the amyloid nucleation score is -1.01 ± 0.5.

RFSKNE showed an amyloid nucleation score of 0.523 ± 0.87.

On to RFVLWYYDY, for which the amyloid nucleation score stood at 3.12 ± 0.076.

As to RFVMRPFATVSTFSISVPAC, the amyloid nucleation score was -0.638 ± 0.74.

In turn, RFVQRKDSFFARI had an amyloid nucleation score of 1.21 ± 0.66.

In the case of RGDGTRNRRCAIFSN, the amyloid nucleation score is -0.064 ± 0.99.

RGELVPHVVMYNLWKL showed an amyloid nucleation score of 4.21 ± 0.082.

In turn, RGEVHSIWTPPLHKGQEMGI returned an amyloid nucleation score of 0.048 ± 0.78.

For RGFNVVHGGELRRMLMTEGD, the amyloid nucleation score came out at 0.926 ± 0.43.

Substance RGPLVFYLFTFWLCDRGNVL registered an amyloid nucleation score of 0.046 ± 0.58.

In the case of RGQQPFVTLKRAVFKSINTD, the amyloid nucleation score is -0.02 ± 0.41.

RGRSIDVPRE displayed an amyloid nucleation score of -0.004 ± 0.53.

As to RGRTRLKFLCLLYWWGKTKG, the amyloid nucleation score was -0.4 ± 0.44.

RGSCMIVGKACS: the amyloid nucleation score is -0.37 ± 0.33.

In the case of RGSRTY, the amyloid nucleation score was found to be 0.17 ± 0.53.

Substance RGSVFPCNVQVDWLRPETRA displayed an amyloid nucleation score of -0.047 ± 1.1.

Consider RGSVWATSCRIAKPIVFWGW, for which the amyloid nucleation score result is “inactive”.

Take RGVYVWKGSSLH: the amyloid nucleation score was -0.377 ± 1.1.

With RGYVCTVVLSNILLGITTEG, the amyloid nucleation score was 3.79 ± 0.097.

In the case of RHDALLSGLYHCRCNQLNVC, the amyloid nucleation score was 4.2 ± 0.074.

Substance RHPSWLYDVFNIVLVITACW registered an amyloid nucleation score of -0.062 ± 0.97.

As for RHSGDFLVFMYKGVLVWSTG, the amyloid nucleation score was 3.24 ± 0.092.

The substance RHVDRLVLWHEDSVAPGETN gave an amyloid nucleation score of 0.394 ± 0.49.

RIELLWRKVSGKCLVQDFDI registered an amyloid nucleation score of 0.117 ± 0.47.

Substance RIFLSVLLLMTVNVSVWPCH gave an amyloid nucleation score of -1.23 ± 1.5.

The substance RIFYFPSLRRKGDYNWRMVV registered an amyloid nucleation score of 0.27 ± 0.39.

On to RIGTFGNDNSMFRSDVLSVS, for which the amyloid nucleation score is 0.579 ± 0.35.

In turn, RIGTTWMMCIPWVLNCNV displayed an amyloid nucleation score of 6.945 ± 0.051.

On to RIIYGCCAVRFARSMAKHPM, for which the amyloid nucleation score is -0.716 ± 0.38.

For the substance RILAIIVGVSAVSKKSNNEL, the amyloid nucleation score is 0.913 ± 0.48.

In the case of RILYSSSSAFIGIYSLFVII, the amyloid nucleation score came to 0.292 ± 0.23.

Substance RIMGFRTFEHWIININYLLL came in with an amyloid nucleation score of -0.094 ± 0.41.

Consider RINLVDLMWMRHWRMGNI, for which the amyloid nucleation score is 1.41 ± 0.29.

RIRNSEAGMLYTLYVTRLVD returned an amyloid nucleation score of -0.007 ± 0.31.

As for RIYILIDYSVYFSSIELLHF, the amyloid nucleation score was -1.67 ± 1.1.

Substance RKFAFKSIWSWYRI came in with an amyloid nucleation score of 0.533 ± 0.54.

The substance RKFSNLVGRYALFICLKSLT came in with an amyloid nucleation score of -0.28 ± 0.3.

RKSLTGYKYCMKWGTIVAPN came in with an amyloid nucleation score of 0.745 ± 0.59.

RKVMKTRVSIDHVNFAERRF showed an amyloid nucleation score of 1.82 ± 0.29.

For RKVSANRFSYWRMGKGMYPV, the amyloid nucleation score is 0.042 ± 0.34.

For RLAGKHKRTDTRSKRTPVLR, the amyloid nucleation score worked out at 0.495 ± 0.47.

RLASRCLLALGMEWLIPMER had an amyloid nucleation score of 2.6 ± 0.11.

In the case of RLCQVDEAASTESRKAKWGR, the amyloid nucleation score turned out to be 0.075 ± 0.35.

For RLDIDFNGLRMFLNVFLMVV, the amyloid nucleation score is -0.188 ± 0.2.

As for RLFCGSWDNFREGE, the amyloid nucleation score is -0.063 ± 0.58.

For the substance RLFPDAMDSRRYIKWQRVV, the amyloid nucleation score is 0.215 ± 0.42.

Take RLFRNTPSDFTFVYTCGRDA: the amyloid nucleation score was determined as 0.497 ± 0.57.

Substance RLFSENMQEVMV yielded an amyloid nucleation score of -0.698 ± 0.52.

For the substance RLGTSAMRCQP, the amyloid nucleation score amounted to 0.038 ± 0.78.

As for RLHSKRAHTRS, the amyloid nucleation score entry is “inactive”.

For RLMSADFMQQEMMRGKVMAG, the amyloid nucleation score is -0.351 ± 0.41.

Turning to RLMSNYHEGAAHKGGKHMPW, the amyloid nucleation score was -0.495 ± 0.65.

For RLNVILGLTSTLNYSSVMPR, the amyloid nucleation score worked out at 3.67 ± 0.17.

With RLRLIFTCMR, the amyloid nucleation score is 3.08 ± 0.11.

In the case of RLRPTTAASSLCSVLVPR, the amyloid nucleation score is -0.097 ± 1.1.

RLSNLVRPLDRLIGVVEVGM: the amyloid nucleation score was found to be 0.469 ± 0.42.

Substance RLSTFSFMVSICTHCLLYTN had an amyloid nucleation score of 1.06 ± 0.59.

RLVCKFRMRKSNRGVRNMLC gave an amyloid nucleation score of 0.797 ± 0.53.
